According to patent US20160258940A1 (IMRA AMERICA, published 2016):
Primed or numbered codes have the meaning given here. Ends that are not written are not given here. FITC′ = fluorescein isothiocyanate

Biological target: T1, EpCAM (epithelial cell adhesion molecule) on the surface of HT29 colon cancer cells (UniProt P16422 24-314, limits assumed)
T1 construct: whole, on cells; HT29 is a human cell line
T1 sequence (looked up): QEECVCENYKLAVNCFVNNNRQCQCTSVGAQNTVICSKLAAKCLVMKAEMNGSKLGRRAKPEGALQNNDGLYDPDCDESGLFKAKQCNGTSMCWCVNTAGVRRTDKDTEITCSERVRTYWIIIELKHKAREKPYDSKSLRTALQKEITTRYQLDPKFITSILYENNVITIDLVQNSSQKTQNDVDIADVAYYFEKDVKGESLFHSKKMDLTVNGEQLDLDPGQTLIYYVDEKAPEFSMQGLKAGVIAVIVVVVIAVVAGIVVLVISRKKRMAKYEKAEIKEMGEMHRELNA
Experiment: confocal fluorescence microscopy of HT29 spheroids with FITC-Ep114/PEG/gold nanoparticles (PEG ratios 100/1, 200/1, 300/1)
Procedure: A colon cancer cell line HT29 was used to conduct a cellular uptake test. First, by using 96 holes type culture plate for spheroids, EZ-Sphere™ (Asahi Glass Co., Ltd.), spheroid of HT29 cells was formed.
Specifically, HT29, 4×10⁵ cells were suspended in a culture medium in which 20 ng/ml of human EGF (manufactured by Miltenyi Biotec, K.K.), 20 ng/ml of human FGF-2 (manufactured by Miltenyi Biotec K.K.), 1/50 amount of B-27 supplement×50 (manufactured by GIBCO), and 1/100 amount of Penicillin-Streptomycin Solution×100 (manufactured by Wako Pure Chemical Industries, Ltd.) were added to 3 ml of D-MEM/F-12 medium (Dulbecco's Modified Eagle Medium: Nutrient Mixture F-12 1:1 Mixture, manufactured by GIBCO). The suspension was dispensed to each well of 200 μl, and was cultured in CO₂ incubator at 37° C. for 72 hours.
Then, a part of the spheroids (approximately 20 μl) and the gold particle-peptide complex were placed on a glass bottom dish (D110300, Matsunami Glass Ind., Ltd.), and irradiated laser of 488 nm with 40 magnification objective lens by using an inverted confocal laser microscope (FLUOVIEW FV1000IX81 type, manufactured by Olympus Corporation), and observed using a filter for Alexa488.

- binding result: binds
B1: EpCAM-binding peptide Ep114 (FITC-labelled), bound to PEG-covered gold nanoparticles (peptide)
peptide: {FITC′}-KHLQCVRNICWSGGK
modifications: cysteine pairing not given here; also: bound to PEG-covered gold nanoparticles
notes: In the assay the peptide covered approx. 15 nm gold nanoparticles that were partially covered with mPEG-SH 5k (PEG:particle ratios 100/1, 200/1, 300/1; 2000 peptides per particle); also called EP114 peptide
